Target: Bovine submaxillary mucin (bovine)
Experiment: SPR, BSM immobilised on CM5 chip

For CC49.scFv, the Kd was 30 nM.
